Results published in the RNAGym collection of RNA variant scans (doi:10.1073/pnas.2313332121).

B1: TPR t1 (parent)
chain: GACCAAUCUGCCCUCAGAGCUCGAGAACAUCUUCGGAUGCAGAGGAGGCAGGCUUCGGUGGCGCGAUAGCGCCAACGUCCUCAACCUCCAAUGCAUCCCACCACAUGAUGAUGCCUGAAGAGCCUUGGUUUUUUG

Variants of: B1
Assay: polymerase ribozyme fitness, log enrichment relative to wild type (log ratio); higher = more active; in vitro selection for triplet polymerase activity
Outline: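 To select mutant libraries of each subunit of a heterodimeric triplet polymerase ribozyme, built by PCR and transcribed, each was annealed with a biotinylated primer, partner subunit and triplets, then incubated frozen at −7 °C. Extended constructs were gel-excised, captured on streptavidin beads and amplified by RT-PCR, in one round carried out in triplicate. Illumina sequencing of input and output libraries kept genotypes with ≥10 input reads and ≥1 read per output. Fitness is the base-2 logarithm of genotype enrichment relative to wild-type enrichment, from inverse-variance-weighted replicate averages.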

Question: Which “polymerase ribozyme fitness (log ratio)” value does the source give for C15A C124G here?
Answer: 0.792

Question: With C15U A100C as the variant, how does the “polymerase ribozyme fitness (log ratio)” value read?
Answer: -2.86

Question: With C15G A18U G63C A91C as the variant, how does the “polymerase ribozyme fitness (log ratio)” value read?
Answer: -4.66

Question: For C15U C73U C85G, which “polymerase ribozyme fitness (log ratio)” value is on record?
Answer: -1.89

Question: For C15U A41U G69C C82A U112A C124A, which “polymerase ribozyme fitness (log ratio)” value is on record?
Answer: -3.69

Question: Which “polymerase ribozyme fitness (log ratio)” value does the source give for C15G U59A G63C here?
Answer: -2.33

Question: Which “polymerase ribozyme fitness (log ratio)” value does the source give for C15G C40A A121G U129C here?
Answer: -3.1

Question: For C15A G117A U129C, which “polymerase ribozyme fitness (log ratio)” value is on record?
Answer: -2.87

Question: For C15U A43U C72G C88U A91C G120C, which “polymerase ribozyme fitness (log ratio)” value is on record?
Answer: -1.58

Question: With C15U C56A C62A G110C as the variant, how does the “polymerase ribozyme fitness (log ratio)” value read?
Answer: -6.04

Question: With C15A G48U A50G C115U as the variant, how does the “polymerase ribozyme fitness (log ratio)” value read?
Answer: -4.63

Question: With C15G C76G C101A as the variant, how does the “polymerase ribozyme fitness (log ratio)” value read?
Answer: -3.53

Question: Which “polymerase ribozyme fitness (log ratio)” value does the source give for C15A U96A here?
Answer: -2.85

Question: For C15G C70A, which “polymerase ribozyme fitness (log ratio)” value is on record?
Answer: -5.24

Question: For C15G A26C U54G G71U C114U, which “polymerase ribozyme fitness (log ratio)” value is on record?
Answer: -5.95

Question: For C15U A26U, which “polymerase ribozyme fitness (log ratio)” value is on record?
Answer: -5.06

Question: Which “polymerase ribozyme fitness (log ratio)” value does the source give for C15G A83G G120C here?
Answer: -2.3

Question: Which “polymerase ribozyme fitness (log ratio)” value does the source give for C15A G36U G61A here?
Answer: -3.38

Question: With C15A C97A G120A U130A as the variant, how does the “polymerase ribozyme fitness (log ratio)” value read?
Answer: -4.97

Question: For C15G C85G U96A C114A G117C, which “polymerase ribozyme fitness (log ratio)” value is on record?
Answer: -3.58

Question: Which “polymerase ribozyme fitness (log ratio)” value does the source give for C15A C64U G110C here?
Answer: -6.12

Question: For C15G C70U A84G, which “polymerase ribozyme fitness (log ratio)” value is on record?
Answer: -5.53

Question: With C15G G69U C102A as the variant, how does the “polymerase ribozyme fitness (log ratio)” value read?
Answer: -1.71

Question: Which “polymerase ribozyme fitness (log ratio)” value does the source give for C15U C70U here?
Answer: -1.7

Question: With C15A G57U G61A U112C G113A U132C as the variant, how does the “polymerase ribozyme fitness (log ratio)” value read?
Answer: -6.11

Question: With C15U C20A C72U C86U as the variant, how does the “polymerase ribozyme fitness (log ratio)” value read?
Answer: -3.76

Question: Which “polymerase ribozyme fitness (log ratio)” value does the source give for C15A C114A here?
Answer: -4.98

Question: With C15G G52U C76U U96C C99U A111G as the variant, how does the “polymerase ribozyme fitness (log ratio)” value read?
Answer: -7.38

Question: For C15A A41U U129A, which “polymerase ribozyme fitness (log ratio)” value is on record?
Answer: -4.72

Question: For U14G U112A, which “polymerase ribozyme fitness (log ratio)” value is on record?
Answer: -0.444

Question: With C15A U132A as the variant, how does the “polymerase ribozyme fitness (log ratio)” value read?
Answer: -2.04

Question: Which “polymerase ribozyme fitness (log ratio)” value does the source give for C15A U132C here?
Answer: -1.46

Question: With C15A C22U C62G A83U C98A C123A U125A as the variant, how does the “polymerase ribozyme fitness (log ratio)” value read?
Answer: -6.9

Question: With C15A U54A C56A as the variant, how does the “polymerase ribozyme fitness (log ratio)” value read?
Answer: -2.64

Question: For C15A G63A G127C, which “polymerase ribozyme fitness (log ratio)” value is on record?
Answer: -4.4

Question: With C15U C28U C72G U96C as the variant, how does the “polymerase ribozyme fitness (log ratio)” value read?
Answer: -3.94

Question: For C15U A41U A90C C115G, which “polymerase ribozyme fitness (log ratio)” value is on record?
Answer: -4.18

Question: With C15A A37U G52C G63A U87A G120C as the variant, how does the “polymerase ribozyme fitness (log ratio)” value read?
Answer: -4.33

Question: For C15G U132A, which “polymerase ribozyme fitness (log ratio)” value is on record?
Answer: -2.31

Question: Which “polymerase ribozyme fitness (log ratio)” value does the source give for C15U C76G here?
Answer: -1.31

Question: With C15A U92G as the variant, how does the “polymerase ribozyme fitness (log ratio)” value read?
Answer: -4.55

Question: For C15A G69U C88U U125C, which “polymerase ribozyme fitness (log ratio)” value is on record?
Answer: -3.27

Question: With C15G A27C A41G C114U U116C as the variant, how does the “polymerase ribozyme fitness (log ratio)” value read?
Answer: -7.35

Question: With C15A C62U as the variant, how does the “polymerase ribozyme fitness (log ratio)” value read?
Answer: -2.04

Question: Which “polymerase ribozyme fitness (log ratio)” value does the source give for C15U C114U here?
Answer: -2.91

Question: Which “polymerase ribozyme fitness (log ratio)” value does the source give for C15G G36A A100C C124G here?
Answer: -3.29

Question: With C15U A43C as the variant, how does the “polymerase ribozyme fitness (log ratio)” value read?
Answer: -2.99

Question: With C15G G39U C73G U112A G122U as the variant, how does the “polymerase ribozyme fitness (log ratio)” value read?
Answer: -2.91

Question: Which “polymerase ribozyme fitness (log ratio)” value does the source give for C15A A26G G44U C89A G120C here?
Answer: -5.42

Question: With C15G A41U C56U U96C C124G as the variant, how does the “polymerase ribozyme fitness (log ratio)” value read?
Answer: -2.08

Question: With C15U C53U G69U as the variant, how does the “polymerase ribozyme fitness (log ratio)” value read?
Answer: -0.102

Question: With C15U C85A C124U G128C U133G as the variant, how does the “polymerase ribozyme fitness (log ratio)” value read?
Answer: -4.88

Question: Which “polymerase ribozyme fitness (log ratio)” value does the source give for C15U G36U C64A A121G here?
Answer: -5.18

Question: For U14G G19A G42A C56A G93C, which “polymerase ribozyme fitness (log ratio)” value is on record?
Answer: -5.15

Question: Which “polymerase ribozyme fitness (log ratio)” value does the source give for C15G C20U here?
Answer: -2.98

Question: For C15A G42U C79U C115G C123A, which “polymerase ribozyme fitness (log ratio)” value is on record?
Answer: -5.36

Question: With C15U A74G A105G as the variant, how does the “polymerase ribozyme fitness (log ratio)” value read?
Answer: -4.44

Question: For C15A G57U A91G C123A, which “polymerase ribozyme fitness (log ratio)” value is on record?
Answer: -3.21

Question: With C15A C64U as the variant, how does the “polymerase ribozyme fitness (log ratio)” value read?
Answer: -2.36

Question: With C15U G25U A26U G51A C99U U112G C114G G135A as the variant, how does the “polymerase ribozyme fitness (log ratio)” value read?
Answer: -6.73

Question: With C15G A27G A95G G110U as the variant, how does the “polymerase ribozyme fitness (log ratio)” value read?
Answer: -5.6

Question: With C15G C49G G71U A74U U106C C124U as the variant, how does the “polymerase ribozyme fitness (log ratio)” value read?
Answer: -5.29

Question: For C15U A37U U55G C56U, which “polymerase ribozyme fitness (log ratio)” value is on record?
Answer: -3.11

Question: Which “polymerase ribozyme fitness (log ratio)” value does the source give for U14G C62U C73U here?
Answer: -2.29

Question: With C15A G45A C97U A121G U130G as the variant, how does the “polymerase ribozyme fitness (log ratio)” value read?
Answer: -0.808

Question: For C15A U78C C88A C102A, which “polymerase ribozyme fitness (log ratio)” value is on record?
Answer: -5.8

Question: Which “polymerase ribozyme fitness (log ratio)” value does the source give for C15A C28G G61A G120A here?
Answer: -2.11

Question: For C15A C94U C114G U126A, which “polymerase ribozyme fitness (log ratio)” value is on record?
Answer: -5.6

Question: Which “polymerase ribozyme fitness (log ratio)” value does the source give for C15G G42A G69U C88G here?
Answer: -2.25

Question: For C15A G25C C34G C64U G113A, which “polymerase ribozyme fitness (log ratio)” value is on record?
Answer: -7.48

Question: With C15A C98U as the variant, how does the “polymerase ribozyme fitness (log ratio)” value read?
Answer: -3.62

Question: For C15A C62U A84G C94U, which “polymerase ribozyme fitness (log ratio)” value is on record?
Answer: -3.06

Question: Which “polymerase ribozyme fitness (log ratio)” value does the source give for C15A G61A C85U C98G A105G U109A C124U here?
Answer: -6.62

Question: With C15U C72A G110U as the variant, how does the “polymerase ribozyme fitness (log ratio)” value read?
Answer: -2.17

Question: Which “polymerase ribozyme fitness (log ratio)” value does the source give for C15A A29C U78A here?
Answer: -4.3

Question: Which “polymerase ribozyme fitness (log ratio)” value does the source give for C15G G93A here?
Answer: -3.21

Question: With C15G G93C as the variant, how does the “polymerase ribozyme fitness (log ratio)” value read?
Answer: -4.1

Question: For C15A A43U, which “polymerase ribozyme fitness (log ratio)” value is on record?
Answer: -3.28

Question: For C15G U112G G122A, which “polymerase ribozyme fitness (log ratio)” value is on record?
Answer: -1.95

Question: Which “polymerase ribozyme fitness (log ratio)” value does the source give for C15A C98U G117A here?
Answer: -4.11

Question: Which “polymerase ribozyme fitness (log ratio)” value does the source give for C15A C73G C123A here?
Answer: -2.17

Question: Which “polymerase ribozyme fitness (log ratio)” value does the source give for C15A G122A here?
Answer: -1.85

Question: For U14G G71U, which “polymerase ribozyme fitness (log ratio)” value is on record?
Answer: -2.33
